Assay results as given in patent publication US20050130265, “Aiolos, Helios, Daedalos and Ikaros: genes, polypeptides, regulatory elements and uses thereof” (published 2005).

Target: T1, Aiolos (GST fusion) (Mus musculus, UniProt O08900 SEQ:1-507)
T1 chain: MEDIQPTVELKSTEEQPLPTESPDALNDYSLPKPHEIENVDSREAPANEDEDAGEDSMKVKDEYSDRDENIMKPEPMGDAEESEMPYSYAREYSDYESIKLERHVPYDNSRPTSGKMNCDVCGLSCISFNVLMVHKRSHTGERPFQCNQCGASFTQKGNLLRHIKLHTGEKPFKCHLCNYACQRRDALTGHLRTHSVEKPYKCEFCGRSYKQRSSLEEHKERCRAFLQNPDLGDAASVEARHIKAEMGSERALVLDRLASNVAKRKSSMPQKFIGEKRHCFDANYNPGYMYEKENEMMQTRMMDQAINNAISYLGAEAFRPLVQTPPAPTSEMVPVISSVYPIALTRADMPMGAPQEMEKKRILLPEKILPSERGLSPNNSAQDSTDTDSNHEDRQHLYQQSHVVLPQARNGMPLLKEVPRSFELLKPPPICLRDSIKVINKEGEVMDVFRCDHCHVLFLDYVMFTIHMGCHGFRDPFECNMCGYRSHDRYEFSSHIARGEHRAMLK
Assay: EMSA; 0.5 ug protein, 1-2 ng DNA; binding stated generally for Ikaros consensus sites
Details: tags: GST
Procedure: DNA binding assays (EMSA) were performed essentially as described in Molnar et al. (1994) Mol. Cell. Biol. 14, 8292-8303. GST-Aiolos and Ikaros fusion proteins and their GST fusion partner (0.5 μg) were tested for binding to the IkBD1-[…] (SEQ ID NO:11) oligonucleotide which contains a high affinity Ikaros binding site (100,000 cpm/reaction which equals 1 to 2 ngs of DNA). Competition assays were performed with Ik-BS 1 and with Ik-BS8 TCAGCTTTTGGGggTACCCTGTCA (SEQ ID NO:12) oligonucleotides used at 5-100× molar excess.

B1: IkBS1 (dsDNA)
DNA 1: TCAGCTTTTGGGAATACCCTGTCA
DNA 2: TGACAGGGTATTCCCAAAAGCTGA
binding result: binds
